# Measured values as given in patent publication US20020137703, “Protection-of-telomere-1 (POT-1) protein and encoding polynucleotides” (published 2002).
# T1: SpPot1p (Pot1, full length) (Schizosaccharomyces pombe, UniProt O13988 O13988:1-555)
# T1 sequence: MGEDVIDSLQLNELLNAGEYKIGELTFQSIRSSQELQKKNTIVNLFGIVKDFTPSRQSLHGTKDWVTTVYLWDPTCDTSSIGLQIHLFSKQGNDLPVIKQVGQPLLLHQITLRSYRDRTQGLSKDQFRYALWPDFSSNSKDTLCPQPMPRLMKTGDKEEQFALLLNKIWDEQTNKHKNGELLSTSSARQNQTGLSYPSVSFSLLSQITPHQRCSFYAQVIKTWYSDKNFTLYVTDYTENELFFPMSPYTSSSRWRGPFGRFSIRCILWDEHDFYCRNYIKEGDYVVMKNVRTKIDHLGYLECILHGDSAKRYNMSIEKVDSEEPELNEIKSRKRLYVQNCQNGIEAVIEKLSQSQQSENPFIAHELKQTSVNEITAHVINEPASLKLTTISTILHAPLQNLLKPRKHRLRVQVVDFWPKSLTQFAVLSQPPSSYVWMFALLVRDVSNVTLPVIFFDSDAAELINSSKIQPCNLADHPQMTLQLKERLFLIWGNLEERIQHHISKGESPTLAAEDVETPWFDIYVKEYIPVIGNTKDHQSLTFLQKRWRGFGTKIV
# T2: SpPot1p N-terminal 22 kDa fragment (Schizosaccharomyces pombe, UniProt O13988 O13988:1-185)
# T2 sequence: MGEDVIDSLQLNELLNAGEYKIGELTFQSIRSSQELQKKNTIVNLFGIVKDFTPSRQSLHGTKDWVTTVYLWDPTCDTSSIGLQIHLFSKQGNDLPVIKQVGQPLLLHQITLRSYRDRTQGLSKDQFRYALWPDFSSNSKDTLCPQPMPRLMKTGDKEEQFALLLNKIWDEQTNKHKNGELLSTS
# T3: hPot1p (Homo sapiens, UniProt Q9NUX5 Q9NUX5:1-634)
# T3 sequence: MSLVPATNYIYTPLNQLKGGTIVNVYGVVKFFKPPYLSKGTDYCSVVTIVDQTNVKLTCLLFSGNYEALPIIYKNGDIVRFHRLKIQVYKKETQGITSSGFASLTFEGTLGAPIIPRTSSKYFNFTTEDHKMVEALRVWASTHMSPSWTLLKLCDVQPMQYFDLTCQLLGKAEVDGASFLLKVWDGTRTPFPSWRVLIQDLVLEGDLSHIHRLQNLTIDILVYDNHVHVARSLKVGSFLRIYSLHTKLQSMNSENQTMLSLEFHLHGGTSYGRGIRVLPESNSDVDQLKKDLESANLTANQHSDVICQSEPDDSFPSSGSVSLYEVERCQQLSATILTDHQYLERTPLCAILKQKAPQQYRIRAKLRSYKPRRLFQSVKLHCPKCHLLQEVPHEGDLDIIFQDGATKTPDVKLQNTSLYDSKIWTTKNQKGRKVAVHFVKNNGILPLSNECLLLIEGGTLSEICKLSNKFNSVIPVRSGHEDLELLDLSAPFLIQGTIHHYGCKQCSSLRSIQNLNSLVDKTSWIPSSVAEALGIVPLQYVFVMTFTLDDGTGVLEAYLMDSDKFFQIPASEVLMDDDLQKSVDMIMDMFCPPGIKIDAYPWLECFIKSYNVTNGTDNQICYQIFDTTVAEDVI
# Tests used:
# [1] = target: T1, SpPot1p (Pot1, full length); assay: listed as SpPot1p-binding oligonucleotide; conditions: tags: N-terminal V5 and His6 tags plus pQE30 N-terminal His6; E. coli M15
# [2] = target: T1, SpPot1p (Pot1, full length); assay: EMSA; 25 mM HEPES pH 7.5, 1 mM EDTA, 50 mM NaCl, 5% glycerol, 20 C, PBoli109 competitor; conditions: tags: N-terminal V5 and His6 tags plus pQE30 N-terminal His6; E. coli M15; label: 5' 32P
# Description: (§1) C-strand ([…]) and G-strand ([…]) were 5′ ³²P-labeled using T4 polynucleotide kinase and γ-³²P-ATP. Duplex DNA was generated by annealing equimolar amounts of radiolabeled C-strand and unlabelled G-strand. Binding reactions (10 μl) were carried out in 25 mM HEPES (pH 7.5), 1 mM EDTA, 50 mM NaCl, 5% glycerol, and 2.5 μM PBoli109 ([…]) as non-specific competitor. Pot1p (50 ng) was incubated with the indicated DNA substrates (1 ng) for 15 min at 20° C. Complexes were analyzed by electrophoresis at 4° C. through a 4-20% TBE gel (Invitrogen) run at 150 V for 80 min. The Pot1p-DNA complex is indicated by an open arrow in FIG. 3A. […] Truncated Pot1p-DNA complex is indicated by a closed arrow.
# [3] = target: T2, SpPot1p N-terminal 22 kDa fragment; assay: EMSA; truncated Pot1p-DNA complex seen in mixture with full-length protein; conditions: tags: N-terminal V5 and His6 tags; present in mixture with full-length protein; label: 5' 32P
# Description: FIG. 3B: Same as FIG. 3A except that the added protein contained truncated Pot1p as well as full length protein. Truncated Pot1p-DNA complex is indicated by a closed arrow.
# as §1
# hPot1p [4] = target: T3, hPot1p; assay: listed as hPot1p-binding oligonucleotide; conditions: tags: N-terminal His6 (pQE30); E. coli
# hPot1p [5] = target: T3, hPot1p; assay: EMSA; same conditions as SpPot1p; conditions: tags: N-terminal His6 (pQE30); E. coli; label: 32P
Binder,binding result [1],other results
TGTGGTGTGTGGGTGTGCGGTT (ssDNA) [PBoli86],binds,–
GGTTACACGGTTACAGGTTACAGGTTACAGGGTTACGGTTACG (ssDNA) [S. pombe G-strand (PBoli112)],–,binding result [2]: binds; binding result [3]: binds
GGTTACAGGTTACAGGTTAC (ssDNA) [PT1],binds,–
CTGTAAGCGGTTACGGTTACGAATCTCG (ssDNA) [PBoli188],binds,–
GGTTACGCATATCATCATTCGAATCTCG (ssDNA) [PBoli184],binds,–
GGTTACGGTTACCATCATTCGAATCTCG (ssDNA) [PBoli186],binds,–
CGGTTACACGGTTACAGGT (ssDNA) [PBoli53],binds,–
GGTTAGGGTTAGGGTTAGGG (ssDNA) [PBoli178],–,binding result (hPot1p [4]): binds
CTGTAAGCATATCATCGGTTACGGTTAC (ssDNA) [PBoli185],binds,–
GGTTACACGGTTACAGGTTACAGGTTACAG (ssDNA) [PBoli110],binds,–
GTTACAGGTTACGGTTACGG (ssDNA) [PBoli54],binds,–
CTGTAAGCATATCATCATTCGAGGTTAC (ssDNA) [PBoli183],binds,–
TTAGGGTTAGGGTTAGGGTTAGGGTTAGGG (ssDNA) [human G-strand (TTAGGG)5 (PBoli179)],–,binding result (hPot1p [5]): binds
GGTTACGGTTACAGGTTACA (ssDNA) [PBoli52],binds,–
CTGTAAGCATATGGTTACTCGAATCTCG (ssDNA) [PBoli187],binds,–
TTAGGGTTAGGGTTAGGGTT (ssDNA) [PBoli177],–,binding result (hPot1p [4]): binds
